T1: human Tie1 (human, UniProt P35590 22-759)
T1 construct: extracellular domain
T1 sequence (looked up): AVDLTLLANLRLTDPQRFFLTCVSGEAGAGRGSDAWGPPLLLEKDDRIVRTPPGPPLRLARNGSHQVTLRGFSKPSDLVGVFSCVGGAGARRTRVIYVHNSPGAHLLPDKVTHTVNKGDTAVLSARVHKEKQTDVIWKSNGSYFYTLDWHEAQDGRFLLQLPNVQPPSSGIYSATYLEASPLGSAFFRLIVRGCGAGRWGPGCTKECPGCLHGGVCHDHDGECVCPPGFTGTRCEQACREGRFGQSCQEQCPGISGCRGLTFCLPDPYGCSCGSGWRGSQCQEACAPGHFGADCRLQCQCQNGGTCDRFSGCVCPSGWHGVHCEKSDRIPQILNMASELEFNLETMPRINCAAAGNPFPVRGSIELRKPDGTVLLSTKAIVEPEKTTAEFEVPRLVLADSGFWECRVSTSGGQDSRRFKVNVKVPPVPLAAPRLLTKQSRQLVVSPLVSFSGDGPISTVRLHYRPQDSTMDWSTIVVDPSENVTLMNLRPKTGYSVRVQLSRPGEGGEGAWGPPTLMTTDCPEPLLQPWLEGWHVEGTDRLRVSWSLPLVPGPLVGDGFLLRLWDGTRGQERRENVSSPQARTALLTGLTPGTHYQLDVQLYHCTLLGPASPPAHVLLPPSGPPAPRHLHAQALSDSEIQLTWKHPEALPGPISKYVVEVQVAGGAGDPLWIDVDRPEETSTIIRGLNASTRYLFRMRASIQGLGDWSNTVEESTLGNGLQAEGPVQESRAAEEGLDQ


Columns and labels:
omalizumab = target: T2, omalizumab; experiment: phage ELISA
T2 construct: Used as irrelevant coated protein; also called irrelevant Fc-containing protein; not shown: the constant regions

mouse Tie2 ECD5 = target: T3, mouse Tie2 ECD5 (mouse, UniProt Q02858 23-442, limits assumed); experiment: ELISA: mouse Tie2 ECD5 construct immobilized, serial dilutions of IgG, anti-huFc-HRP
T3 construct: domain: ECD5 (Ig1, Ig2, EGF and Ig3 domains); also called mECD5
Source text: (§1) Plates were washed and detected with anti-huFC-conjugated HRP secondary antibody using the methods above.

human Tie1 = target: T1, human Tie1; experiment: ELISA: human Tie1 immobilized, serial dilutions of IgG, anti-huFc-HRP
Source text: as §1
The binding ELISA was also used with immobilized Tie1 protein to assess Tie1 binding.

rat Tie2ECD.flag = target: T4, rat Tie2ECD.flag (rat, UniProt A0ABK0L6J5 19-740); experiment: Biacore, hIgG captured, 25C
T4 construct: extracellular domain; also called rTie2.flag; not shown: C-terminal Flag tag
Description: (§2) Monovalent affinities of selected anti-Tie2 hIgGs were determined using a Biacore T200 instrument (GE Life Sciences). Anti-humanFc was covalently immobilized on a Series S CM5 Biacore sensor chip to enable non-covalent capture of anti-Tie2 antibodies and binding of human or rat Tie2ECD.flag was monitored in real time at 25° C. using a multi-cycle kinetics experiment format. Between cycles, the surface was regenerated with 3 M MgCl₂. Monovalent affinities were determined by kinetic analysis, using Biacore Evaluation Software (GE Life Sciences) to fit a 1:1 binding model to the data.

human Tie2ECD.flag = target: T5, human Tie2ECD.flag (human, UniProt Q02763 23-748); experiment: Biacore, hIgG captured, 25C
T5 construct: also called hTie2.flag; not shown: C-terminal Flag tag
Description: as §2

[1] = target: T6, human Tie2 ECD5 (extracellular domain without the FN3 domains; Ig1, Ig2, EGF and Ig3 domains) (human, UniProt Q02763 23-442); experiment: ELISA: human Tie2 ECD5 construct immobilized, serial dilutions of IgG, anti-huFc-HRP
T6 construct: whole entry named; also called huECD5; hECD5; not shown: C-terminal carrier of the coated construct (hIgG1 Fc or Flag tag)
Source text: as §1

[2] = target: T7, mouse Tie2 full extracellular domain (mouse, UniProt Q02858 23-746); experiment: phage ELISA
T7 construct: extracellular domain; also called mFullECD
Description: Clones from the fourth round were screened for Tie2 binding and specificity by ELISA. Screening ELISAs were carried out by coating the wells of a 96-well microtiter plate with Tie2 protein or irrelevant protein at 65 ul per well (1 ug/ml in coating buffer) at 4° C. overnight. In a 96-tube plate, colonies from the fourth round were grown overnight at 37° C. in 400 ul 2YT media with 50 ug/ml carbenicillin and helper phage K07. The plate was spun down at 3000 rpm for 10 min. 30 ul of the culture supernatant was added with 60 ul of ELISA buffer (PBS with 0.5% BSA and 0.05% Tween20) to the Tie2-coated plate and incubated at room temperature for 1 hr. Plates were washed with PBS—0.05% Tween20 and 100 ul/well of horseradish peroxidase (HRP)-conjugated anti-M13 antibody (1/5000 dilution in PBS plus 0.5% BSA and 0.05% Tween20) at room temperature for 30 min (Sidhu et al., supra). The wells were washed with PBS—0.05% Tween20 prior to 100 ul/well of a 1:1 ratio of 3,3′,5,5′-tetramethylbenzidine (TMB) peroxidase substrate and Peroxidase Solution B (H₂O₂) ((Kirkegaard-Perry Laboratories (Gaithersburg, Md.)) being added per well and incubated for 5 min at room temperature. The reaction was stopped by adding 100 ul 1M phosphoric Acid (H₃PO₄) per well and the OD of wells was determined using a standard ELISA plate reader at 450 nm.

T5 sequence (Q02763 23-748 limits assumed): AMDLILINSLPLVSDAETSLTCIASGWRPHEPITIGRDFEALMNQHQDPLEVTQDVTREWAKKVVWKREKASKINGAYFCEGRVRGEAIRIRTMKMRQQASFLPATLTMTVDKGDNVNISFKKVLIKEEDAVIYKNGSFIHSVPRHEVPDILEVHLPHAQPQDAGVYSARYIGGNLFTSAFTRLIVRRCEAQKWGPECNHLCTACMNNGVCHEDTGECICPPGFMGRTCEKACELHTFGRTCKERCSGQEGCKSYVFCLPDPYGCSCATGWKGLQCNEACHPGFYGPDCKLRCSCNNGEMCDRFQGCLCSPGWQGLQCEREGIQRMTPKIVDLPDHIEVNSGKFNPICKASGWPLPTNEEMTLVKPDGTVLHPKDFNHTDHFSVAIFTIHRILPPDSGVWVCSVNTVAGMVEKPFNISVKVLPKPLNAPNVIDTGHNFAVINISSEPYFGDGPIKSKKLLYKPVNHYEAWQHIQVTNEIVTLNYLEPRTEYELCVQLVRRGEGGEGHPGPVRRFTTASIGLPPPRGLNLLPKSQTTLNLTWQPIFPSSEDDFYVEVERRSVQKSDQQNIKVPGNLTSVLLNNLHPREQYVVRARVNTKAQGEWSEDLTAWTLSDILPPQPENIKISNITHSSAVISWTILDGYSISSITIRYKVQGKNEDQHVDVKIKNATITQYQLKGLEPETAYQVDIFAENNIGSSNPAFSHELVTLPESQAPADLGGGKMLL
T6 sequence (Q02763 23-442 limits assumed): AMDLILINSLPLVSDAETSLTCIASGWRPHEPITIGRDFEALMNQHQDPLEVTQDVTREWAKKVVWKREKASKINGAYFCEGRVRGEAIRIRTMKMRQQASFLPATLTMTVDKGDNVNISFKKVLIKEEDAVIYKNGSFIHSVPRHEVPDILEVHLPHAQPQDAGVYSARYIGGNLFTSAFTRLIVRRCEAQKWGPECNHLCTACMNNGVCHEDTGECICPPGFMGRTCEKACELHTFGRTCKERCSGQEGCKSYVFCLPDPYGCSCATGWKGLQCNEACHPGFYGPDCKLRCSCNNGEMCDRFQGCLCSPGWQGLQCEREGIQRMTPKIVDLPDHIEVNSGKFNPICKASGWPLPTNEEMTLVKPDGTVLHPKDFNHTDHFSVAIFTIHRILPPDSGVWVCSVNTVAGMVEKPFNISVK
T7 sequence (Q02858 23-746): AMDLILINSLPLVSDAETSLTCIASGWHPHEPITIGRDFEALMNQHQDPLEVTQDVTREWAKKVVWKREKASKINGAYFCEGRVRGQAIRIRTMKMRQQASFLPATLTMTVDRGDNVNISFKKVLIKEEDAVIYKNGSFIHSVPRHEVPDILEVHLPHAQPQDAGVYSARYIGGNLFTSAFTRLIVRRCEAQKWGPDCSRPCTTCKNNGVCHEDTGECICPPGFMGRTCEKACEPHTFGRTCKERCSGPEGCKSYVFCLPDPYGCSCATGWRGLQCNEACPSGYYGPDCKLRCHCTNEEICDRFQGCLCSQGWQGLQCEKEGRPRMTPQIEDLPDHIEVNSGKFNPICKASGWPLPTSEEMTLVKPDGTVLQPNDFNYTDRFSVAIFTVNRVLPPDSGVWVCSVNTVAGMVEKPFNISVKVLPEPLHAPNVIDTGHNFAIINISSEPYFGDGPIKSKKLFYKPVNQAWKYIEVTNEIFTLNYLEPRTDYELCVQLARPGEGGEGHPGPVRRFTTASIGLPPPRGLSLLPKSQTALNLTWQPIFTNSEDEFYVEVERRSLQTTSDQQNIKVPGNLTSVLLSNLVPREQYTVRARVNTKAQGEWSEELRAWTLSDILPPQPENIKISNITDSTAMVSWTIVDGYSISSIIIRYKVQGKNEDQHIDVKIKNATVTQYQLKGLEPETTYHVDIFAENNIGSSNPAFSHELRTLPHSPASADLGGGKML
T3 sequence (Q02858 23-442 limits assumed): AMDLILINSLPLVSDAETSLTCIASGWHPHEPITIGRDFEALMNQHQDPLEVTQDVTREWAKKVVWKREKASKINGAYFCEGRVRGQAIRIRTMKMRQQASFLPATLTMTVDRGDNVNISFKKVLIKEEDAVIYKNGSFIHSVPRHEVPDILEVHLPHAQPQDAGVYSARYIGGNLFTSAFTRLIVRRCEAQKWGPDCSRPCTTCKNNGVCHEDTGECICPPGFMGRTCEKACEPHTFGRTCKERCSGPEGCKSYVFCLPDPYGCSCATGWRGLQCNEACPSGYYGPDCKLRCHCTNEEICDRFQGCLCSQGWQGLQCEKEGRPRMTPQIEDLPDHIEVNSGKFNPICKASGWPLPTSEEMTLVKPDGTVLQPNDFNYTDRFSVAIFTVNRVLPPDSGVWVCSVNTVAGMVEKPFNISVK

Binder	binding result (omalizumab)	EC50 (read off the curve) (mouse Tie2 ECD5) [nM]	binding result (human Tie1)	Kd (rat Tie2ECD.flag) [nM]	Kd (human Tie2ECD.flag) [nM]	EC50 (read off the curve) [1] [nM]	binding result [2]
Tie2.12 (antibody, IgG1, V domains shown, hIgG1 in later assays; also called Ab12) VH: EVQLVESGGGLVQPGGSLRLSCAASGFTFSSYWIHWVRQAPGKGLEWVAAISPNDGSTYYADSVKGRFTISADTSKNTAYLQMNSLRAEDTAVYYCARSRYYGQRLVYYVMDYWGQGTLVTVSS VL: DIQMTQSPSSLSASVGDRVTITCRASQDVSTAVAWYQQKPGKAPKLLIYSASFLYSGVPSRFSGSGSGTDFTLTISSLQPEDFATYYCQQSYTTPPTFGQGTKVEIKR	no binding	~1	no binding (tested: 200 nM)	116	52	~1	
Tie2.24 (antibody, IgG1, V domains shown, hIgG1 in later assays; also called Ab24) VH: EVQLVESGGGLVQPGGSLRLSCAASGFTFTSSGISWVRQAPGKGLEWVATINPYGGDTYYADSVKGRFTISADTSKNTAYLQMNSLRAEDTAVYYCARFYRFLSSGMDYWGQGTLVTVSS VL: DIQMTQSPSSLSASVGDRVTITCRASQDVSTAVAWYQQKPGKAPKLLIYSASFLYSGVPSRFSGSGSGTDFTLTISSLQPEDFATYYCQQSYTTPPTFGQGTKVEIKR	no binding			2800	822		binds

Source: patent publication US20210332142A1 (Genentech, published 2021)
